From the supplement of paper PMC7877785
± gives the uncertainty stated by the source.

Test: self-splicing fitness, log relative to wild type (ln ratio); higher = more splicing; Tetrahymena group I intron in knt gene, E. coli kanamycin selection, DiMSum; sequences stand for … in CUCUCU…GGAGGGAAAAGUUAUCAGGCAUGCACCUGGUAGCUAGUCUUUAAACCAAUAGAUUGCAUCGGUUUAAAAGGCAAGACCGUCAAAUUGCGGGAAAGGGGUCAACAGCCGUUCAGUACCAAGUCUCAGGGGAAACUUUGAGAUGGCCUUGCAAAGGGUAUGGUAAUAAGCUGACGGACAUGGUCCUAACCACGCAGCCAAGUCCUAAGUCAACAGAUCUUCUGUUGAUAUGGAUGCAGUUCACAGACUAAAUGUCGGUCGGGGAAGAUGUAUUCUUCUCAUAAGAUAUAGUCGGACCUCUCCUUAAUGGGAGCUAGCGGAUGAAGUGAUGCAACACUGGAGCCGCUGGGAACUAAUUUGUAUGCGAAAGUAUAUUGAUUAGUUUUGGAGUACUCGUGGUCG
How it was run: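 Library with all eight P1ex-region intron nucleotides randomised, intron inside the knt kanamycin-resistance gene on pET-22b(+), in E. coli BL21(DE3). Cells grew overnight at 37°C or 30°C on LB agar with or without 25 μg/mL kanamycin (plus 100 μg/mL carbenicillin, 50 μM IPTG, 0.2% rhamnose), in six replicate transformations. Pooled colonies were amplicon-sequenced on Illumina HiSeq 2500. DiMSum fitness is the error-weighted combination of wild-type-normalised replicate fold changes, kanamycin versus none.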

Sequence | self-splicing fitness (ln) (30 °C) | self-splicing fitness (ln) (37 °C)
AGACAGCAAUAUUACGCGUU | -3.47 ± 0.16 | -2.11 ± 0.14
GAUAAGCAAUAUUACGGAGC | -3.95 ± 0.29 | -1.76 ± 0.19
AUACAGCAAUAUUACGAUUA | -1.18 ± 0.11 | -0.625 ± 0.11
UCCUAGCAAUAUUACGGCGC | -2.21 ± 0.24 | -1.69 ± 0.23
AUUGAGCAAUAUUACGCGAA | -3.61 ± 0.37 | -1.28 ± 0.26
GCCAAGCAAUAUUACGUACG | -1.79 ± 0.078 | -1.56 ± 0.11
CUGAAGCAAUAUUACGAUUC | -3.13 ± 0.23 | -2.5 ± 0.29
GAUGAGCAAUAUUACGAUGC | -1.35 ± 0.086 | -0.41 ± 0.12
GAGCAGCAAUAUUACGUUCU |  | -2.48 ± 0.26
ACUGAGCAAUAUUACGUUGA | -3.25 ± 0.15 | -2.48 ± 0.15
AAAAAGCAAUAUUACGUCGU | -1.5 ± 0.061 | -0.928 ± 0.078
AUACAGCAAUAUUACGUGCC | -1.16 ± 0.078 | -0.689 ± 0.11
GCUUAGCAAUAUUACGGUUC | -0.635 ± 0.098 | -0.185 ± 0.12
CAUCAGCAAUAUUACGCGAC | -4.17 ± 0.29 | -2.92 ± 0.22
UAACAGCAAUAUUACGCAGA | -2.78 ± 0.14 | -1.47 ± 0.087
CUGGAGCAAUAUUACGAGGG | -2.67 ± 0.24 | -2.08 ± 0.34
GAUUAGCAAUAUUACGAGGA | -2.13 ± 0.29 | -2.08 ± 0.31
CGGAAGCAAUAUUACGAGAU |  | -2.18 ± 0.33
UGCAAGCAAUAUUACGGUAA | -1.08 ± 0.12 | -0.838 ± 0.11
CGAUAGCAAUAUUACGCACC | -2.55 ± 0.15 | -1.09 ± 0.16

Sequence | self-splicing fitness (ln) (30 °C) | self-splicing fitness (ln) (37 °C)
GCGGAGCAAUAUUACGAUGG | -1.16 ± 0.26 | -1.02 ± 0.32
GCCCAGCAAUAUUACGGACA | -0.873 ± 0.12 | -0.931 ± 0.13
AUAUAGCAAUAUUACGAUGC | -2.89 ± 0.27 | -0.335 ± 0.22
AUCGAGCAAUAUUACGUUCU | -1.32 ± 0.074 | -1 ± 0.089
UCCAAGCAAUAUUACGUAAU | -1.94 ± 0.11 | -0.725 ± 0.14
GCAGAGCAAUAUUACGAACA | -3.11 ± 0.4 | 
GUGAAGCAAUAUUACGCUAG | -0.945 ± 0.14 | 0.0205 ± 0.23
CCUGAGCAAUAUUACGGCCG |  | -2.21 ± 0.4
ACUCAGCAAUAUUACGCUAG | -1.74 ± 0.094 | -1.3 ± 0.11
CGAAAGCAAUAUUACGGCAU | -2.26 ± 0.12 | -0.29 ± 0.089
UUUCAGCAAUAUUACGUGUC | -3.73 ± 0.18 | -2.04 ± 0.15
CCGUAGCAAUAUUACGGGCG | -2.81 ± 0.17 | -1.34 ± 0.14
ACGGAGCAAUAUUACGAUCC |  | -1.94 ± 0.47
ACGAAGCAAUAUUACGCCGC | -3.56 ± 0.21 | -2.02 ± 0.24
GAAAAGCAAUAUUACGUUUA | -1.32 ± 0.11 | -0.963 ± 0.1
GGAUAGCAAUAUUACGCUUA | -1.88 ± 0.18 | -0.532 ± 0.15
CUAGAGCAAUAUUACGCCAG | -0.97 ± 0.1 | -0.759 ± 0.21
CAUCAGCAAUAUUACGGGAC | -3.95 ± 0.46 | -2.51 ± 0.22
GUGCAGCAAUAUUACGGUUU | -0.309 ± 0.062 | -0.000827 ± 0.076
